B1: human α-actinin 1 rod domain SR1–SR2–SR3–SR4 (shear–force constructs) (domain or fragment, UniProt P12814 267-745, looked up)
chain: AVNQENEQLMEDYEKLASDLLEWIRRTIPWLENRVPENTMHAMQQKLEDFRDYRRLHKPPKVQEKCQLEINFNTLQTKLRLSNRPAFMPSEGRMVSDINNAWGCLEQVEKGYEEWLLNEIRRLERLDHLAEKFRQKASIHEAWTDGKEAMLRQKDYETATLSEIKALLKKHEAFESDLAAHQDRVEQIAAIAQELNELDYYDSPSVNARCQKICDQWDNLGALTQKRREALERTEKLLETIDQLYLEYAKRAAPFNNWMEGAMEDLQDTFIVHTIEEIQGLTTAHEQFKATLPDADKERLAILGIHNEVSKIVQTYHVNMAGTNPYTTITPQEINGKWDHVRQLVPRRDQALTEEHARQQHNERLRKQFGAQANVIGPWIQTKMEEIGRISIEMHGTLEDQLSHLRQYEKSIVNYKPKIDQLEGDHQLIQEALIFDNKHTNYTMEHIRVGWEQLLTTIARTINEVENQILTRDAKGISQ
modifications: biotin on the AviTag (second rod of the homo-dimer construct)
notes: human α-actinin 1 (ACTN1), central rod domain of four spectrin-like repeats SR1–SR2–SR3–SR4; a full SR rod with the helical linker region has about 480 amino acids; Stood in single-chain chimeras: Spy003–(SR1–SR4)ACTN1–(GS linker, about 170 aa)–AviTag–(SR1–SR4)ACTN1 (homo-dimer; first rod bears SpyTag003, second rod the biotinylated AviTag) and Spy003–(SR1–SR4)ACTN1–(GS …)

A value given as a limit tells only on which side of the number the result lay.

For data set [1], the target named is Entamoeba histolytica α-actinin 2 rod SR1–SR2 (Entamoeba histolytica). Nature of the data set: single-molecule magnetic tweezers; shear–force geometry; same tethered single-chain constructs; force–jump cycles, dwell time until rupture at a target force, lifetime by exponential fit with bootstrap analysis; 1× PBS, 1% BSA, 1 mM DTT, 10 mM sodium L-ascorbate, 22 ± 1 °C.

Data set [2] has the same target. Description: single-molecule magnetic tweezers; shear–force geometry; the two partners on one chain joined by a long flexible GS linker, tethered via SpyTag003 to a SpyCatcher-coated coverslip and via the biotinylated AviTag to a streptavidin/neutravidin bead; linear force-increase scans (5 pN/s; 1 pN/s for SR2–SR3:SR2–SR3; 1 and 5 pN/s for E. histolytica) and force-decrease scans (−0.1 pN/s); 1× PBS, 1% BSA, 1 mM DTT, 10 mM sodium L-ascorbate, 22 ± 1 °C.

Data set [3] concerns the molecule itself. Nature of the data set: single-molecule magnetic tweezers; shear–force geometry; same tethered single-chain constructs; force–jump cycles, dwell time until rupture at a target force, lifetime by exponential fit with bootstrap analysis; 1× PBS, 1% BSA, 1 mM DTT, 10 mM sodium L-ascorbate, 22 ± 1 °C.
For data set [4], the target named is T1, human α-actinin 1 SR2–SR3–SR4 (human, UniProt P12814 385-745).
T1 construct: human α-actinin 1 (ACTN1), spectrin-like repeats SR2–SR3–SR4 of the rod; First half of the single-chain chimera Spy003–(SR2–SR3–SR4)ACTN1–(GS linker)–AviTag–(SR1–SR2–SR3)ACTN1; joined to m5 by the linker; also called (SR2–SR3–SR4)_(ACTN1); not shown: SpyTag003, N-terminal, kept
The description is as above. The note with it: both partners purified.

Data set [5] concerns the target B1. Described as above. The note with it: both partners purified.

Regarding “Entamoeba histolytica α-actinin 2 rod SR1–SR2 (domain or fragment)”, in data set [1], the lifetime at forces <10 pN (second state) is over 10 s, the lifetime at forces <10 pN (third state) is over 1 s and the lifetime at forces <15 pN (strongest state) is over 100 s. In data set [2], this molecule came in with a peak rupture force (second state, 5 pN/s) of 20 pN; a peak rupture force (strongest state, 5 pN/s) of 33 pN; a rupture force (third state) of 5 pN.

As for B1, the “lifetime within 40 pN (shear geometry)” value in data set [3] was over 100 s.

B2: human α-actinin 1 SR1–SR2–SR3 (domain or fragment, UniProt P12814 267-625, looked up)
chain: AVNQENEQLMEDYEKLASDLLEWIRRTIPWLENRVPENTMHAMQQKLEDFRDYRRLHKPPKVQEKCQLEINFNTLQTKLRLSNRPAFMPSEGRMVSDINNAWGCLEQVEKGYEEWLLNEIRRLERLDHLAEKFRQKASIHEAWTDGKEAMLRQKDYETATLSEIKALLKKHEAFESDLAAHQDRVEQIAAIAQELNELDYYDSPSVNARCQKICDQWDNLGALTQKRREALERTEKLLETIDQLYLEYAKRAAPFNNWMEGAMEDLQDTFIVHTIEEIQGLTTAHEQFKATLPDADKERLAILGIHNEVSKIVQTYHVNMAGTNPYTTITPQEINGKWDHVRQLVPRRDQALTEEHARQ
modifications: biotin on the AviTag
notes: human α-actinin 1 (ACTN1), spectrin-like repeats SR1–SR2–SR3 of the rod; Second half of the single-chain chimera Spy003–(SR2–SR3–SR4)ACTN1–(GS linker)–AviTag–(SR1–SR2–SR3)ACTN1; joined to m4 by the linker; also called (SR1–SR2–SR3)_(ACTN1); not shown: AviTag, N-terminal, kept
Consider B2, for which the “fold decrease of the force-dependent lifetime against the full rod dimer (m1 with m1)” value in data set [4] was about 1000 fold.

B3: human α-actinin 4 rod domain SR1–SR2–SR3–SR4 (domain or fragment, UniProt O43707 286-764, looked up)
chain: AVNQENEHLMEDYEKLASDLLEWIRRTIPWLEDRVPQKTIQEMQQKLEDFRDYRRVHKPPKVQEKCQLEINFNTLQTKLRLSNRPAFMPSEGKMVSDINNGWQHLEQAEKGYEEWLLNEIRRLERLDHLAEKFRQKASIHEAWTDGKEAMLKHRDYETATLSDIKALIRKHEAFESDLAAHQDRVEQIAAIAQELNELDYYDSHNVNTRCQKICDQWDALGSLTHSRREALEKTEKQLEAIDQLHLEYAKRAAPFNNWMESAMEDLQDMFIVHTIEEIEGLISAHDQFKSTLPDADREREAILAIHKEAQRIAESNHIKLSGSNPYTTVTPQIINSKWEKVQQLVPKRDHALLEEQSKQQSNEHLRRQFASQANVVGPWIQTKMEEIGRISIEMNGTLEDQLSHLKQYERSIVDYKPNLDLLEQQHQLIQEALIFDNKHTNYTMEHIRVGWEQLLTTIARTINEVENQILTRDAKGISQ
modifications: biotin on the AviTag (second rod of the construct)
notes: human α-actinin 4 (ACTN4), central rod domain of four spectrin-like repeats SR1–SR2–SR3–SR4; here the ACTN4 rod bears the biotinylated AviTag; also called (SR1–SR2–SR3–SR4)_(ACTN4); not shown: SpyTag003, N-terminal, kept; AviTag, N-terminal, kept
For B3, the “lifetime within 40 pN (shear geometry)” value in data set [5] and in data set [3] was over 100 s in each case.

The record behind these values is publication PMC11271494, “Multi-domain interaction mediated strength-building in human α-actinin dimers unveiled by direct single-molecule quantification” (Nature Communications, 2024).
